pKd: −log10 of the molar value.
Key:
Test in all cases: EMSA
[1] = target: T1, Rap1 (Saccharomyces cerevisiae) (UniProt P11938); conditions: 10.7 mM HEPES-KOH pH 7.9, 4 mM Tris-Cl, 80.9 mM NaCl, 19.1 mM KCl, 5.4 mM MgCl2, 0.2 mM Mg acetate, 0.05% NP-40, 10% glycerol, 0.2 uM ZnCl2, 0.2 mM EDTA, 0.4 mM
T1 sequence: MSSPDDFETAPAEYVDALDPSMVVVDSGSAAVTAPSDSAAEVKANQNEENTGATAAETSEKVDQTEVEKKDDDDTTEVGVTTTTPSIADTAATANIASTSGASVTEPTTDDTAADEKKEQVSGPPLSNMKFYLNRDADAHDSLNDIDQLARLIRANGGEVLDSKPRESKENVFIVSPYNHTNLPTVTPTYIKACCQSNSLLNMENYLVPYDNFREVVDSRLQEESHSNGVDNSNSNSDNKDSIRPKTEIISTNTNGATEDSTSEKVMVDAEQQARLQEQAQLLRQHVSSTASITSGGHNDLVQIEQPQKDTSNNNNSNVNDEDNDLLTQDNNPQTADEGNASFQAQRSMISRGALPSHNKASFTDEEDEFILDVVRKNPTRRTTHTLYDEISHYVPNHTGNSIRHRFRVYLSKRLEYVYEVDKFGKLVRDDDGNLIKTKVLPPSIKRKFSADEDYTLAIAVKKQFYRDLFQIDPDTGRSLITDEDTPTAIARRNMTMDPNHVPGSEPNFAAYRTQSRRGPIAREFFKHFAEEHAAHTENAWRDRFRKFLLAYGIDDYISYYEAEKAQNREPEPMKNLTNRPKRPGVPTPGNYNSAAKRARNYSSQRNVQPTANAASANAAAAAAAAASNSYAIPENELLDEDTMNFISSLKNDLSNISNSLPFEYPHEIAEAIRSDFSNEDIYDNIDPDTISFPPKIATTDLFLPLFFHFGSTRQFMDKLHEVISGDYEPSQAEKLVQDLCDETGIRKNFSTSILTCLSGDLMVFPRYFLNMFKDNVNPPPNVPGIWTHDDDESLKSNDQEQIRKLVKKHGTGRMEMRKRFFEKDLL

[2] = target: T2, Reb1 (Saccharomyces cerevisiae) (UniProt P21538); conditions: apparent Kd on reconstituted nucleosome; 10.7 mM HEPES-KOH pH 7.9, 4 mM Tris-Cl, 80.9 mM NaCl, 19.1 mM KCl, 5.4 mM MgCl2, 0.2 mM Mg acetate, 0.05% NP-40, 10% glycerol, 0.2 uM ZnCl2, 0.2 mM EDTA, 0.4 mM
T2 sequence: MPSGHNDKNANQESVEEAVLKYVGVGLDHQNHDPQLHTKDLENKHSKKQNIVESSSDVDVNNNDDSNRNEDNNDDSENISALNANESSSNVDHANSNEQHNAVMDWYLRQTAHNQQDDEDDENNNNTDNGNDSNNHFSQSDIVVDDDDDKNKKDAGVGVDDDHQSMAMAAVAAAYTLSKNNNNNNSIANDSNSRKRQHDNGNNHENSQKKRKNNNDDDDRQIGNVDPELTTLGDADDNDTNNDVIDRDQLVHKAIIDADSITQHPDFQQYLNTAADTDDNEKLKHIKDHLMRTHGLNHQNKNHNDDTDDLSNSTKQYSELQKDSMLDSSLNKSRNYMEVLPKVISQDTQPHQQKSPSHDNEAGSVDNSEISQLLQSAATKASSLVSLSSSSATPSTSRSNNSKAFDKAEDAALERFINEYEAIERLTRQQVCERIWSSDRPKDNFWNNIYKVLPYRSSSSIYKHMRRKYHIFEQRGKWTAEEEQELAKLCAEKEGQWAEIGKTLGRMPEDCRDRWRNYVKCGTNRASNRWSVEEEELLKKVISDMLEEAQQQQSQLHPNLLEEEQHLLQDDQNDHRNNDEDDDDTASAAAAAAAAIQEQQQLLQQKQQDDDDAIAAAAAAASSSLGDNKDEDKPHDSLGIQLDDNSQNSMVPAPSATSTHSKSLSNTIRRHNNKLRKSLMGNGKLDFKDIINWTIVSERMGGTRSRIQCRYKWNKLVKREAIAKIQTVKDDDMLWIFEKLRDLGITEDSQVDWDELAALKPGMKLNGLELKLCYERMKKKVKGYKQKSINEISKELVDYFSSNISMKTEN

[3] = target: Cbf1 (Saccharomyces cerevisiae) (UniProt P17106); conditions: apparent Kd on reconstituted nucleosome; 10.7 mM HEPES-KOH pH 7.9, 4 mM Tris-Cl, 80.9 mM NaCl, 19.1 mM KCl, 5.4 mM MgCl2, 0.2 mM Mg acetate, 0.05% NP-40, 10% glycerol, 0.2 uM ZnCl2, 0.2 mM EDTA, 0.4 mM
[4] = target: T3, Abf1 (Saccharomyces cerevisiae) (UniProt P14164); conditions: apparent Kd on reconstituted nucleosome; 10.7 mM HEPES-KOH pH 7.9, 4 mM Tris-Cl, 80.9 mM NaCl, 19.1 mM KCl, 5.4 mM MgCl2, 0.2 mM Mg acetate, 0.05% NP-40, 10% glycerol, 0.2 uM ZnCl2, 0.2 mM EDTA, 0.4 mM
T3 sequence: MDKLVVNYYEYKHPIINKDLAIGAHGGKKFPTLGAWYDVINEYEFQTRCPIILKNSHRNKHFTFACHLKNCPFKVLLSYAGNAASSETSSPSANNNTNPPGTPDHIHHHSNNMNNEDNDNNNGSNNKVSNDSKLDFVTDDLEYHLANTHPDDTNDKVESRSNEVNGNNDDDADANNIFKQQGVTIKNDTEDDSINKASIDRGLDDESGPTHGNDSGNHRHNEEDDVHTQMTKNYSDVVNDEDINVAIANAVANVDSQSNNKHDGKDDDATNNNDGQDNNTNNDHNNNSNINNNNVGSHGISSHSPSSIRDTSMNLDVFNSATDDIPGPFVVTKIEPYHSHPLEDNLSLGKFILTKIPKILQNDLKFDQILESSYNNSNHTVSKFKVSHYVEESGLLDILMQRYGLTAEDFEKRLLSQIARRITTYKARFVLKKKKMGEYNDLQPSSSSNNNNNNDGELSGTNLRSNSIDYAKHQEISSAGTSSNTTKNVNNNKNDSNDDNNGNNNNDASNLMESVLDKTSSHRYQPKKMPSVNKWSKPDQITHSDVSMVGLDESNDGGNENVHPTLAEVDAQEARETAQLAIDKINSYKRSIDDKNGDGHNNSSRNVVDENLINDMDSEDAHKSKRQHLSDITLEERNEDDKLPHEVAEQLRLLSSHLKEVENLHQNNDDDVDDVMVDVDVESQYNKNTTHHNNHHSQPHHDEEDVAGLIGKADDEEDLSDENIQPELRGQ

Sequence of UniProt P17106 (P17106 whole entry): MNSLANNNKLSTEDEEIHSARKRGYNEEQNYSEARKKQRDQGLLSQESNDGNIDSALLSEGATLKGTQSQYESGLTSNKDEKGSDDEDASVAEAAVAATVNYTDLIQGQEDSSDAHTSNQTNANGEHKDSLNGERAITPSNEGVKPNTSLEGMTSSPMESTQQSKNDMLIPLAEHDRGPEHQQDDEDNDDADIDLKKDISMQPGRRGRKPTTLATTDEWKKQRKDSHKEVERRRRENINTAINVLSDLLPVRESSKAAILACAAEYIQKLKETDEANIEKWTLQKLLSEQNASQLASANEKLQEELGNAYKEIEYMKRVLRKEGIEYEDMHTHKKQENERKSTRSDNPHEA

## GGTCGCTGTTCAATACATGCACAGGATGTATATATCTGACACGTGCCTGGAGACTAGGGAGTAATCCCCTTGGCGGTTAAAACGCGGGGGACAGCGCGTACGTGCGTTTAAGCGGTGCTAGAGCTGTCTACGACCAATTGAGCGGCCTCGGCACCGGGATTCTCCAGGGCGGCCGCTACACCCATACATTTCCATGGTGATGACCGCGGACCTGCAGGCATGCAAGC (double strand) [20-NC-60Rap1bs nucleosome]
[1]
  pKd: 9.10

## GGTCGCTGTTCAATACATGCACAGGATGTATATATCTGACACGTGCCTGGAGACTAGGGAGTAATCCCCTTGGCGGTTAAAACGCGGGGGACAGCGCGTACGTGCGTTTAAGCGGTGCTAGAGCTGTCTACGACCAATTGAGCGGCCTCGGCACCGGGATTCTCCAGGGCGGCCGCTCGGGTAAAGCATCACCATGGTGATGACCGCGGACCTGCAGGCATGCAAGC (double strand) [20-NC-60Reb1bs nucleosome]
[2]
  pKd: 8.31

## GGTCGCTGTTCAATACATGCACAGGATGTATATATCTGACACGTGCCTGGAGACTAGGGAGTAATCCCCTTGGCGGTTAAAACGCGGGGGACAGCGCGTACGTGCGTTTAAGCGGTGCTAGAGCTGTCTACGACCAATTGAGCGGCCTCGGCACCGGGATTCTCCAGGGCGGCCGCTGTCACGTGGGCTAGTAATGGTGATGACCGCGGACCTGCAGGCATGCAAGC (double strand) [20-NC-60Cbf1bs nucleosome]
[3]
  pKd: 8.11

## GGTCGCTGTTCAATACATGCACAGGATGTATATATCTGACACGTGCCTGGAGACTAGGGAGTAATCCCCTTGGCGGTTAAAACGCGGGGGACAGCGCGTACGTGCGTTTAAGCGGTGCTAGAGCTGTCTACGACCAATTGAGCGGCCTCGGCACCGGGATTCTCCAGGGCGGCCGCTTATCGTATTGCATGATATGGTGATGACCGCGGACCTGCAGGCATGCAAGC (double strand) [20-NC-60Abf1bs nucleosome]
[4]
  pKd: 9.00
